Test results: the RNAGym collection of RNA variant scans (doi:10.1073/pnas.2313332121)

B1: TPR t1 (parent)
chain: GACCAAUCUGCCCUCAGAGCUCGAGAACAUCUUCGGAUGCAGAGGAGGCAGGCUUCGGUGGCGCGAUAGCGCCAACGUCCUCAACCUCCAAUGCAUCCCACCACAUGAUGAUGCCUGAAGAGCCUUGGUUUUUUG

Variants of: B1
Test: polymerase ribozyme fitness, log enrichment relative to wild type (log ratio); higher = more active; in vitro selection for triplet polymerase activity
Method in brief: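 Frozen incubation at −7 °C formed the core of a single, triplicate in vitro selection round applied to PCR-built, transcribed mutant libraries of each subunit of a heterodimeric triplet polymerase ribozyme. Extended constructs were gel-excised, captured with streptavidin beads and amplified by RT-PCR, and input and output libraries were Illumina-sequenced with a filter of ≥10 input reads and ≥1 read per output. Fitness is the logarithm of genotype enrichment relative to wild-type enrichment, with inverse-variance-weighted replicate averaging, and the logarithm is base 2.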
For A27C G36A G47C, the “polymerase ribozyme fitness (log ratio)” value was -4.8.
For A27G C49G G61C G63U C89G G117C, the “polymerase ribozyme fitness (log ratio)” value was -6.39.
With A27C G57A C123A the “polymerase ribozyme fitness (log ratio)” value was -4.55.
In the case of A27C U54C C70U, the “polymerase ribozyme fitness (log ratio)” value is reported as -4.38.
In the case of A26U G61U, the “polymerase ribozyme fitness (log ratio)” value is reported as -3.08.
With A27G C64U G77U C85A U130C the “polymerase ribozyme fitness (log ratio)” value was -4.3.
For A27C G57C C85A G135U, the “polymerase ribozyme fitness (log ratio)” value was -4.97.
For A27C C86A, the “polymerase ribozyme fitness (log ratio)” value was -4.06.
With A27G A74G C115A the “polymerase ribozyme fitness (log ratio)” value was -4.15.
With A26U U59G C62U the “polymerase ribozyme fitness (log ratio)” value was -4.33.
For A27G A100U G120U, the “polymerase ribozyme fitness (log ratio)” value was -3.21.
With A27G G120C the “polymerase ribozyme fitness (log ratio)” value was -0.195.
In the case of A27G G120A, the “polymerase ribozyme fitness (log ratio)” value is reported as -1.1.
With A26U G113A the “polymerase ribozyme fitness (log ratio)” value was -3.51.
In the case of A27G G58A A75G, the “polymerase ribozyme fitness (log ratio)” value is reported as -2.58.
For A27G G60A, the “polymerase ribozyme fitness (log ratio)” value was -1.17.
For A26U G48C A50U C53U, the “polymerase ribozyme fitness (log ratio)” value was -4.37.
With A27C C53A C82U the “polymerase ribozyme fitness (log ratio)” value was -4.15.
In the case of A27C G110A, the “polymerase ribozyme fitness (log ratio)” value is reported as -4.22.
With A26U U126G the “polymerase ribozyme fitness (log ratio)” value was -4.96.
With A27G C34U C72U C86A U112A U133C the “polymerase ribozyme fitness (log ratio)” value was -2.87.
In the case of A26U G52U, the “polymerase ribozyme fitness (log ratio)” value is reported as -4.03.
For A27G A29G G45A C56G C73A A75G C104A G107A G117U, the “polymerase ribozyme fitness (log ratio)” value was -6.73.
In the case of A27C G44U C64U, the “polymerase ribozyme fitness (log ratio)” value is reported as -4.14.
In the case of A27C C88G U129C, the “polymerase ribozyme fitness (log ratio)” value is reported as -4.24.
In the case of A27C G36A G48U A84U G113C G117U C123G, the “polymerase ribozyme fitness (log ratio)” value is reported as -8.45.
In the case of A27G G69U A74U, the “polymerase ribozyme fitness (log ratio)” value is reported as -2.9.
For A27G U33G G63C G120A C123U, the “polymerase ribozyme fitness (log ratio)” value was -5.79.
With A27G C102U A103G U112G the “polymerase ribozyme fitness (log ratio)” value was -7.77.
With A27C A29G C62A the “polymerase ribozyme fitness (log ratio)” value was -5.73.
With A27C G77A the “polymerase ribozyme fitness (log ratio)” value was -4.66.
With A27G C88U C115U the “polymerase ribozyme fitness (log ratio)” value was -4.85.
In the case of A27C C88U, the “polymerase ribozyme fitness (log ratio)” value is reported as -3.46.
In the case of A27G C72A G93C G120U, the “polymerase ribozyme fitness (log ratio)” value is reported as -2.9.
With A26U G128C the “polymerase ribozyme fitness (log ratio)” value was -4.92.
In the case of A27G G69C, the “polymerase ribozyme fitness (log ratio)” value is reported as -2.33.
With A27C U55G the “polymerase ribozyme fitness (log ratio)” value was -2.72.
For A26U G135U, the “polymerase ribozyme fitness (log ratio)” value was -4.2.
With A27G U38A the “polymerase ribozyme fitness (log ratio)” value was -3.17.
For A27G U87C, the “polymerase ribozyme fitness (log ratio)” value was -1.74.
With A27G A83G G93A the “polymerase ribozyme fitness (log ratio)” value was -3.
With A27G C56U the “polymerase ribozyme fitness (log ratio)” value was -1.35.
With A27C U81C C124A the “polymerase ribozyme fitness (log ratio)” value was -2.25.
In the case of A27G C40G G107C C115U G120U U131A, the “polymerase ribozyme fitness (log ratio)” value is reported as -5.69.
With A26U G52U C56U the “polymerase ribozyme fitness (log ratio)” value was -3.49.
With A27G G51U G61A G127C the “polymerase ribozyme fitness (log ratio)” value was -6.98.
For A27G G45A A83G U130G, the “polymerase ribozyme fitness (log ratio)” value was -4.37.
With A27G G51U G58A U78C A84C the “polymerase ribozyme fitness (log ratio)” value was -5.35.
With A27G A41G C86A the “polymerase ribozyme fitness (log ratio)” value was -2.64.
For A26U G60C C86G, the “polymerase ribozyme fitness (log ratio)” value was -4.99.
For A27C A29U C56U U106A G122A C123G, the “polymerase ribozyme fitness (log ratio)” value was -1.35.
For A27C G57U C124G, the “polymerase ribozyme fitness (log ratio)” value was -1.48.
In the case of A27C A50G G63U G110C U125G, the “polymerase ribozyme fitness (log ratio)” value is reported as -6.71.
With A27G G71A the “polymerase ribozyme fitness (log ratio)” value was -1.68.
In the case of A27G C40U, the “polymerase ribozyme fitness (log ratio)” value is reported as -2.39.
For A27G U38A A83C, the “polymerase ribozyme fitness (log ratio)” value was -2.58.
For A27G C34G A43C G45U C115A, the “polymerase ribozyme fitness (log ratio)” value was -7.59.
In the case of A27U A29C G47A C53G A121C, the “polymerase ribozyme fitness (log ratio)” value is reported as -3.53.
In the case of A27G C28G, the “polymerase ribozyme fitness (log ratio)” value is reported as -4.25.
For A27G G51A G61C, the “polymerase ribozyme fitness (log ratio)” value was -4.
For A27C G39A C62A C124G, the “polymerase ribozyme fitness (log ratio)” value was -4.04.
In the case of A26U G51A U54A G69C G117C, the “polymerase ribozyme fitness (log ratio)” value is reported as -7.56.
For A26U U38G A43U C73G C76U A111G, the “polymerase ribozyme fitness (log ratio)” value was -7.42.
For A26U G63U, the “polymerase ribozyme fitness (log ratio)” value was -3.98.
With A26U G63A the “polymerase ribozyme fitness (log ratio)” value was -5.09.
For A26U G58U, the “polymerase ribozyme fitness (log ratio)” value was -4.66.
For A26U G48C C86G, the “polymerase ribozyme fitness (log ratio)” value was -3.65.
With A26U G60A U130C the “polymerase ribozyme fitness (log ratio)” value was -2.93.
With A27C A68G G71U the “polymerase ribozyme fitness (log ratio)” value was -6.32.
For A27G G110A, the “polymerase ribozyme fitness (log ratio)” value was -1.89.
With A27G G110U the “polymerase ribozyme fitness (log ratio)” value was -3.11.
For A27C G51U C76U C115G C124G U131A G135U, the “polymerase ribozyme fitness (log ratio)” value was -7.29.
For A27G C56A C104U, the “polymerase ribozyme fitness (log ratio)” value was -2.14.
For A26U G61C U96A C114U G117A, the “polymerase ribozyme fitness (log ratio)” value was -5.84.
With A27G C102U the “polymerase ribozyme fitness (log ratio)” value was -3.53.
With A26U G47C G77A U78A the “polymerase ribozyme fitness (log ratio)” value was -5.33.
With A27C G47U the “polymerase ribozyme fitness (log ratio)” value was -4.29.
With A27C G35U C64U C80U U109A the “polymerase ribozyme fitness (log ratio)” value was -7.59.
For A27G C34A, the “polymerase ribozyme fitness (log ratio)” value was -4.06.
With A27C G57C the “polymerase ribozyme fitness (log ratio)” value was -3.36.
For A26U U54C C86G A121U, the “polymerase ribozyme fitness (log ratio)” value was -0.876.
For A27U A37C U59C, the “polymerase ribozyme fitness (log ratio)” value was -3.36.
In the case of A27G C70U, the “polymerase ribozyme fitness (log ratio)” value is reported as -2.05.
